Reference: the supplement of paper PMC10065799, “High-throughput profiling of sequence recognition by tyrosine kinases and SH2 domains using bacterial peptide display” (eLife, 2023)

Each sequence was assayed on Fer (mouse) (assay: phosphorylation enrichment, bacterial display (enrichment ratio); higher = better substrate or ligand; peptides without Tyr show the background).
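Further: 11-residue human phosphosite peptides and single-mutation variants displayed on the E. coli surface, counted by deep sequencing, each peptide's frequency after selection divided by its frequency in the unselected input library; frequency after pTyr selection over input frequency; kinase dosed for 20-30% of maximal phosphorylation in three min.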

Row | Sequence | phosphorylation enrichment
1 | ALTDNYMYVVI [HAGH_Y61_L64V] | 7.79
2 | FDGKDYIALKE [HLA-A_Y147_N151K_YF] | 0.379
3 | SAVTGYRVNVI [FN1_Y937_D940N] | 0.434
4 | TLSGTYQYIIA [FOXL2_Y81_I80T] | 5.51
5 | CTNIHYNYMCN [TP53_Y234_T231N] | 0.522
6 | PLTKVYVVEGS [ZMPSTE24_Y253] | 0.567
7 | SDGKRYRVPSD [HHIPL2_Y395_H391D] | 0.408
8 | LFMGDYVGRGY [PPP2CA_Y86_D88G] | 0.713
9 | LFLACYCIGGG [UBD_Y161] | 0.657
10 | FFCRWYRNQKS [EREG_Y144_R147Q_YF] | 0.513
11 | EEQKKYYNAMK [SCN5A_Y1494] | 0.377
12 | YQRITYHNWRH [PDE6B_Y556_R552Q] | 0.461
13 | QLQVFYATRDQ [MIPEP_Y579_L582R] | 0.59
14 | LSRDVYEEDSY [RET_Y900] | 0.416
15 | CTTIHYFFMCN [TP53_Y234_N235Y_YF] | 0.384
16 | GKMSSYAFFVQ [HMGB1_Y16] | 0.474
17 | ETEMLYGSAPR [PRC1_Y464] | 6.32

Row | Sequence | phosphorylation enrichment
18 | TVEDHYFEGGI [TKT_Y563_YF] | 0.559
19 | GTFVIYVRFSG [FLNB_Y1687_G1691S_YF] | 0.443
20 | PVDTFYDSTRG [DYNC2H1_Y2231_M2227V_YF] | 0.917
21 | GQKVAYGGTED [ALDH3A1_Y305_G309E] | 0.344
22 | SLRAHYDTPRS [DOK7_Y405] | 0.367
23 | GEYYRYLAEVA [YWHAG_Y133_D129E] | 0.374
24 | TVLWWYTGTRP [UGT1A1_Y337_R336W] | 0.398
25 | PGAPAYCVLME [MYO5A_Y1245_R1246C] | 0.876
26 | LGIDRYHAIVF [NPSR1_Y147_S143G_YF] | 1.04
27 | GLSSAYGDLTS [KRT8_Y427_G429D] | 0.479
28 | PVKSEYPSIKL [NPC2_Y119] | 0.433
29 | GQECEYPPTQD [METAP2_Y137] | 0.609
30 | KVPELYEIHTE [BCR_Y554_K558T] | 0.74
31 | IGHHAYGDQFR [IDH1_Y135_R132H_YF] | 0.371
32 | VREIRYQGGNR [VWF_Y1570] | 0.402
33 | TDECEYDELIV [TGM1_Y136_Y134C] | 1.61

The sequences below were run against EPHB2 (UniProt P29323) in the same assay as above.
EPHB2, sequence (P29323 whole entry, looked up): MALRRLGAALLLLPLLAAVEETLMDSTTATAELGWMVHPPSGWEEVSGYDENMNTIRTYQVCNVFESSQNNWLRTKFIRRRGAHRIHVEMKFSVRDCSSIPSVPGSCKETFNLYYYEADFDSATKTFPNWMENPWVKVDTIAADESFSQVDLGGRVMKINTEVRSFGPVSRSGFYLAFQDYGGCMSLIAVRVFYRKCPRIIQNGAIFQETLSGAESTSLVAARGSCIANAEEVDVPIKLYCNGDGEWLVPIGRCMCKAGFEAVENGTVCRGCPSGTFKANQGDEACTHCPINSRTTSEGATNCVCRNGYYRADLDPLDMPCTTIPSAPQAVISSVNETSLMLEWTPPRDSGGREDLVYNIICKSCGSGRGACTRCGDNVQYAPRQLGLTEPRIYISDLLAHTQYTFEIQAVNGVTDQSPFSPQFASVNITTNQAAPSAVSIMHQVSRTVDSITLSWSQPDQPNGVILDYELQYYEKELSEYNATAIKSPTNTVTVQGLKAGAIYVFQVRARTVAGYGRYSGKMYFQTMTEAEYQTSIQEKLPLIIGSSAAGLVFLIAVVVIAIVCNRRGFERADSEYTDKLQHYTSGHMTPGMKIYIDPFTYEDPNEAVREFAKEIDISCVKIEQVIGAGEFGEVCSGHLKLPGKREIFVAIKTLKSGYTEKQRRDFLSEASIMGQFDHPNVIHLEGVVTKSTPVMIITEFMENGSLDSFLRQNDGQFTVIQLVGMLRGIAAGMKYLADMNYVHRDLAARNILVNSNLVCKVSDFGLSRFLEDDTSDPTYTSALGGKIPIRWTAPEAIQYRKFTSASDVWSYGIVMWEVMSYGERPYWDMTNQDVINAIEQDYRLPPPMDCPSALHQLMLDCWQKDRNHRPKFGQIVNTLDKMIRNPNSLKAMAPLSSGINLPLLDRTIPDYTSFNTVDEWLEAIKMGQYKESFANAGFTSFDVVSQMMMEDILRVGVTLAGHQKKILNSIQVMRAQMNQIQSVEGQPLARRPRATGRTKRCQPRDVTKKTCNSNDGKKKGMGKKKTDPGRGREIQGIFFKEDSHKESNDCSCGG

Row | Sequence | phosphorylation enrichment
34 | ALTDNYMYVVI [HAGH_Y61_L64V] | 13.1
35 | FDGKDYIALKE [HLA-A_Y147_N151K_YF] | 0.43
36 | SAVTGYRVNVI [FN1_Y937_D940N] | 0.407
37 | TLSGTYQYIIA [FOXL2_Y81_I80T] | 2.21
38 | CTNIHYNYMCN [TP53_Y234_T231N] | 0.537
39 | PLTKVYVVEGS [ZMPSTE24_Y253] | 0.538
40 | SDGKRYRVPSD [HHIPL2_Y395_H391D] | 0.303
41 | LFMGDYVGRGY [PPP2CA_Y86_D88G] | 1.72
42 | LFLACYCIGGG [UBD_Y161] | 1.12
43 | FFCRWYRNQKS [EREG_Y144_R147Q_YF] | 0.489
44 | EEQKKYYNAMK [SCN5A_Y1494] | 0.492
45 | YQRITYHNWRH [PDE6B_Y556_R552Q] | 0.483
46 | QLQVFYATRDQ [MIPEP_Y579_L582R] | 0.805
47 | LSRDVYEEDSY [RET_Y900] | 0.685
48 | CTTIHYFFMCN [TP53_Y234_N235Y_YF] | 0.534
49 | GKMSSYAFFVQ [HMGB1_Y16] | 0.711
50 | ETEMLYGSAPR [PRC1_Y464] | 0.513

Row | Sequence | phosphorylation enrichment
51 | TVEDHYFEGGI [TKT_Y563_YF] | 0.625
52 | GTFVIYVRFSG [FLNB_Y1687_G1691S_YF] | 0.468
53 | PVDTFYDSTRG [DYNC2H1_Y2231_M2227V_YF] | 0.551
54 | GQKVAYGGTED [ALDH3A1_Y305_G309E] | 0.471
55 | SLRAHYDTPRS [DOK7_Y405] | 0.351
56 | GEYYRYLAEVA [YWHAG_Y133_D129E] | 2.05
57 | TVLWWYTGTRP [UGT1A1_Y337_R336W] | 0.513
58 | PGAPAYCVLME [MYO5A_Y1245_R1246C] | 1.5
59 | LGIDRYHAIVF [NPSR1_Y147_S143G_YF] | 1.41
60 | GLSSAYGDLTS [KRT8_Y427_G429D] | 0.429
61 | PVKSEYPSIKL [NPC2_Y119] | 0.562
62 | GQECEYPPTQD [METAP2_Y137] | 0.67
63 | KVPELYEIHTE [BCR_Y554_K558T] | 0.945
64 | IGHHAYGDQFR [IDH1_Y135_R132H_YF] | 0.417
65 | VREIRYQGGNR [VWF_Y1570] | 0.511
66 | TDECEYDELIV [TGM1_Y136_Y134C] | 0.842

What follows are sequences tested against Jak2 (UniProt O60674) in the same assay as above.
Jak2, sequence (O60674 whole entry, looked up): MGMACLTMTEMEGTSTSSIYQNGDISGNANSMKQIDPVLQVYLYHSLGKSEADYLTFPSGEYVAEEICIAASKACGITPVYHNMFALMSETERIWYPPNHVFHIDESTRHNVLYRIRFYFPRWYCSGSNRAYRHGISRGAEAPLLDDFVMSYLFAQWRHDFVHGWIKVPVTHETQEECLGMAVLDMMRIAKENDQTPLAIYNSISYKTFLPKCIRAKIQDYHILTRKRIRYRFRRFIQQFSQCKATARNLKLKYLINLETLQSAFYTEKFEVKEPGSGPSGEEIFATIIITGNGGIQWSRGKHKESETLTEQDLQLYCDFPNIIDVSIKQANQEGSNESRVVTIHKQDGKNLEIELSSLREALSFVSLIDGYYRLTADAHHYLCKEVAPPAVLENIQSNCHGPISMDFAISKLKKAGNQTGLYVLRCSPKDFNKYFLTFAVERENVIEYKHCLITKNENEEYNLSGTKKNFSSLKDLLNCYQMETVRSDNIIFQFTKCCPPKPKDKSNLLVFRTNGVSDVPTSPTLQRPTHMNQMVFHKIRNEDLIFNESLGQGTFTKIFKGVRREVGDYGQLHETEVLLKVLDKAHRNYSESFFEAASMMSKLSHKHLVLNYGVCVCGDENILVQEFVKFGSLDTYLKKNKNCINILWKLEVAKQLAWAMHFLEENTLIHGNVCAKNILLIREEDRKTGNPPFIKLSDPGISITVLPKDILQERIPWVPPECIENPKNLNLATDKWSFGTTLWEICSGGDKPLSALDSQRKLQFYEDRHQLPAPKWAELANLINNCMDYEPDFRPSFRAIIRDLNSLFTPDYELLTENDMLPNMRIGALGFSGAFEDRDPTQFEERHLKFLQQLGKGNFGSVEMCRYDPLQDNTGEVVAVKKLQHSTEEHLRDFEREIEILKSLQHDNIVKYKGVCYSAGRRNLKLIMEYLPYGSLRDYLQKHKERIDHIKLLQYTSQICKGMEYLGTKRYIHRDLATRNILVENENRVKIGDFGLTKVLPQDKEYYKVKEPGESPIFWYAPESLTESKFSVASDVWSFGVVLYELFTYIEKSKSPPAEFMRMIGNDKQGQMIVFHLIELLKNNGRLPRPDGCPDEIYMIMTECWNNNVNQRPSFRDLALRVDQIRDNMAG

Row | Sequence | phosphorylation enrichment
67 | ALTDNYMYVVI [HAGH_Y61_L64V] | 2.65
68 | FDGKDYIALKE [HLA-A_Y147_N151K_YF] | 0.659
69 | SAVTGYRVNVI [FN1_Y937_D940N] | 0.634
70 | TLSGTYQYIIA [FOXL2_Y81_I80T] | 1.05
71 | CTNIHYNYMCN [TP53_Y234_T231N] | 0.799
72 | PLTKVYVVEGS [ZMPSTE24_Y253] | 0.526
73 | SDGKRYRVPSD [HHIPL2_Y395_H391D] | 0.771
74 | LFMGDYVGRGY [PPP2CA_Y86_D88G] | 2.97
75 | LFLACYCIGGG [UBD_Y161] | 1.38
76 | FFCRWYRNQKS [EREG_Y144_R147Q_YF] | 0.488
77 | EEQKKYYNAMK [SCN5A_Y1494] | 0.674
78 | YQRITYHNWRH [PDE6B_Y556_R552Q] | 0.561
79 | QLQVFYATRDQ [MIPEP_Y579_L582R] | 1.96
80 | LSRDVYEEDSY [RET_Y900] | 1.55
81 | CTTIHYFFMCN [TP53_Y234_N235Y_YF] | 1.07
82 | GKMSSYAFFVQ [HMGB1_Y16] | 1.01
83 | ETEMLYGSAPR [PRC1_Y464] | 0.556

Row | Sequence | phosphorylation enrichment
84 | TVEDHYFEGGI [TKT_Y563_YF] | 0.776
85 | GTFVIYVRFSG [FLNB_Y1687_G1691S_YF] | 1.14
86 | PVDTFYDSTRG [DYNC2H1_Y2231_M2227V_YF] | 0.939
87 | GQKVAYGGTED [ALDH3A1_Y305_G309E] | 0.791
88 | SLRAHYDTPRS [DOK7_Y405] | 0.402
89 | GEYYRYLAEVA [YWHAG_Y133_D129E] | 4.37
90 | TVLWWYTGTRP [UGT1A1_Y337_R336W] | 1.23
91 | PGAPAYCVLME [MYO5A_Y1245_R1246C] | 1.25
92 | LGIDRYHAIVF [NPSR1_Y147_S143G_YF] | 2.47
93 | GLSSAYGDLTS [KRT8_Y427_G429D] | 0.535
94 | PVKSEYPSIKL [NPC2_Y119] | 0.557
95 | GQECEYPPTQD [METAP2_Y137] | 1.24
96 | KVPELYEIHTE [BCR_Y554_K558T] | 0.827
97 | IGHHAYGDQFR [IDH1_Y135_R132H_YF] | 0.503
98 | VREIRYQGGNR [VWF_Y1570] | 0.968
99 | TDECEYDELIV [TGM1_Y136_Y134C] | 0.788

These sequences were tested against FGFR1 (UniProt P11362) in the same assay as above.
FGFR1, sequence (P11362 whole entry, looked up): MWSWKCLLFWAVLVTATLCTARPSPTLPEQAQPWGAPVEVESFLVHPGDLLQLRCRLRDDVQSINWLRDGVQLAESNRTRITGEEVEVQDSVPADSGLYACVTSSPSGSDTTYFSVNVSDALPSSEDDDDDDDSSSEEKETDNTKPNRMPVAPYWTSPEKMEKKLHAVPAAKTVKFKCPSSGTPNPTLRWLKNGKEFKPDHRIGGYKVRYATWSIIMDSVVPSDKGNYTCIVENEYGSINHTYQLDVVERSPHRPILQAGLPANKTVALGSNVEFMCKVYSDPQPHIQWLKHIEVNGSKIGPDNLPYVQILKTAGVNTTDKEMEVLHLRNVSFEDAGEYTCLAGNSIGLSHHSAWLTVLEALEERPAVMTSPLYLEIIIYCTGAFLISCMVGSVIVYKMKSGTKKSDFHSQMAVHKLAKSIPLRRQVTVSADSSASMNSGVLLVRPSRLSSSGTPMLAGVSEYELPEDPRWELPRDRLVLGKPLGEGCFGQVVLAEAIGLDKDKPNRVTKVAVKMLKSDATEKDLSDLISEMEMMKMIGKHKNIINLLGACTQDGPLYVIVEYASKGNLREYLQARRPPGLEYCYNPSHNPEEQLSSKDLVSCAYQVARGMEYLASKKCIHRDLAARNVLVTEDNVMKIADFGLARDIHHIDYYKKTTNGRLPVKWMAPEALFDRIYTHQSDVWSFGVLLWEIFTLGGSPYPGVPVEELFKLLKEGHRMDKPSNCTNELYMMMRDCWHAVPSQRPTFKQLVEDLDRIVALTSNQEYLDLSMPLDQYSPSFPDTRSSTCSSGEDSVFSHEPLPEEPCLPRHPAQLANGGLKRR

Row | Sequence | phosphorylation enrichment
100 | ALTDNYMYVVI [HAGH_Y61_L64V] | 11.1
101 | FDGKDYIALKE [HLA-A_Y147_N151K_YF] | 0.398
102 | SAVTGYRVNVI [FN1_Y937_D940N] | 0.391
103 | TLSGTYQYIIA [FOXL2_Y81_I80T] | 5.91
104 | CTNIHYNYMCN [TP53_Y234_T231N] | 0.468
105 | PLTKVYVVEGS [ZMPSTE24_Y253] | 0.494
106 | SDGKRYRVPSD [HHIPL2_Y395_H391D] | 0.377
107 | LFMGDYVGRGY [PPP2CA_Y86_D88G] | 1.17
108 | LFLACYCIGGG [UBD_Y161] | 0.764
109 | FFCRWYRNQKS [EREG_Y144_R147Q_YF] | 0.347
110 | EEQKKYYNAMK [SCN5A_Y1494] | 0.509
111 | YQRITYHNWRH [PDE6B_Y556_R552Q] | 0.626
112 | QLQVFYATRDQ [MIPEP_Y579_L582R] | 0.86
113 | LSRDVYEEDSY [RET_Y900] | 0.656
114 | CTTIHYFFMCN [TP53_Y234_N235Y_YF] | 0.413
115 | GKMSSYAFFVQ [HMGB1_Y16] | 0.603
116 | ETEMLYGSAPR [PRC1_Y464] | 0.474

Row | Sequence | phosphorylation enrichment
117 | TVEDHYFEGGI [TKT_Y563_YF] | 0.762
118 | GTFVIYVRFSG [FLNB_Y1687_G1691S_YF] | 0.406
119 | PVDTFYDSTRG [DYNC2H1_Y2231_M2227V_YF] | 0.423
120 | GQKVAYGGTED [ALDH3A1_Y305_G309E] | 0.412
121 | SLRAHYDTPRS [DOK7_Y405] | 0.343
122 | GEYYRYLAEVA [YWHAG_Y133_D129E] | 9.65
123 | TVLWWYTGTRP [UGT1A1_Y337_R336W] | 0.389
124 | PGAPAYCVLME [MYO5A_Y1245_R1246C] | 1.58
125 | LGIDRYHAIVF [NPSR1_Y147_S143G_YF] | 1.55
126 | GLSSAYGDLTS [KRT8_Y427_G429D] | 0.506
127 | PVKSEYPSIKL [NPC2_Y119] | 0.579
128 | GQECEYPPTQD [METAP2_Y137] | 0.584
129 | KVPELYEIHTE [BCR_Y554_K558T] | 0.578
130 | IGHHAYGDQFR [IDH1_Y135_R132H_YF] | 0.414
131 | VREIRYQGGNR [VWF_Y1570] | 0.378
132 | TDECEYDELIV [TGM1_Y136_Y134C] | 0.57
